This is an account of results in US20210317227A1.

What all share (assay): cell-based or functional assay
The target in test [1] is human FcγRIIa-H variant on Jurkat effector cells (human) (UniProt P12318).
Test [2] concerns the target FcγRIIa on M2c macrophages (secondary ADCP assay) (UniProt P12318).
The target in test [3] is FcγRIIIa on NK cells (secondary ADCC assays) (UniProt P08637).
The target of test [4] is FcγRIIIa on Jurkat effector cells (UniProt P08637).

For “fucosylated anti-CD20 IgG1 monoclonal antibody (obinutuzumab)”, the EC50 (nM) Mean turned out to be 7.1 nM in test [1], 0.82 nM in test [2], 0.033 nM in test [3] and 7.1 nM in test [4]. Turning to “afucosylated anti-CD20 IgG1 monoclonal antibody (obinutuzumab)”, in test [2], the EC50 (nM) Mean was found to be 0.37 nM. Consider “afucosylated anti-PD-L1 IgG1 monoclonal antibody (avelumab)”, for which, in test [3], the EC50 (nM) Mean came out at 0.0054 nM.

The substance “fucosylated anti-PD-L1 IgG1 monoclonal antibody (avelumab)” showed an EC50 (nM) Mean in test [4] of 0.049 nM.
